Consider 2 molecules from paper doi:10.1101/2021.12.28.474321 (bioRxiv, 2021).

The target of data set [1] is FBA3 in soluble extracts of Chlamydomonas cultures (Chlamydomonas reinhardtii (endogenous in Chlamydomonas cultures)). The experiment in a line: SEC. In general terms: Size exclusion chromatography separates by hydrodynamic size, large species first.
The data set “SEC” deals with the molecule itself. The experiment in a line: SEC.

In data set [1], “FBA3 in soluble extracts of Chlamydomonas cultures (enzyme)” had a stoichiometry N of 4.

B1: recombinant fructose-1,6-bisphosphate aldolase 3 from Chlamydomonas reinhardtii (CrFBA3) (enzyme, UniProt Q42690 28-377, looked up)
chain: GKYDEELIKTAGTVASKGRGILAMDESNATCGKRLDSIGVENTEENRRAYRELLVTAPGLGQYISGAILFEETLYQSTASGKKFVDVMKEQNIVPGIKVDKGLVPLSNTNGESWCMGLDGLDKRCAEYYKAGARFAKWRSVVSIPHGPSIIAARDCAYGLARYAAIAQNAGLVPIVEPEVLLDGEHDIDRCLEVQEAIWAETFKYMADNKVMFEGILLKPAMVTPGADCKNKAGPAKVAEYTLKMLRRRVPPAVPGIMFLSGGQSELESTLNLNAMNQSPNPWHVSFSYARALQNTVLKTWQGKPENVQAAQAALLKRAKANSDAQQGKYDATTEGKEAAQGMYEKGYVY
Take B1: the “stoichiometry N” value in “SEC” was 4.

As usually defined, the stoichiometry N is a count of units in the complex or per binding partner.
